T1: CD86-mIgG (Ancell, Inc) (UniProt P42081 24-247, limits assumed)
T1 construct: Bought reagent
T1 sequence (looked up): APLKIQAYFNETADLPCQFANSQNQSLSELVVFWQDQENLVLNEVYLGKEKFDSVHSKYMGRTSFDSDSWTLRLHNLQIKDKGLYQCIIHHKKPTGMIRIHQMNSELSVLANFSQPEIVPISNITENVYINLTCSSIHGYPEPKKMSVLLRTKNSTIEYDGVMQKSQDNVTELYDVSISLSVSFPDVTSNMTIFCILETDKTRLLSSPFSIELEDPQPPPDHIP

T2: Murine CD86-mIgG (R&D Systems, Inc) (murine, UniProt P42082 24-244, limits assumed)
T2 construct: also called muCD86
T2 sequence (looked up): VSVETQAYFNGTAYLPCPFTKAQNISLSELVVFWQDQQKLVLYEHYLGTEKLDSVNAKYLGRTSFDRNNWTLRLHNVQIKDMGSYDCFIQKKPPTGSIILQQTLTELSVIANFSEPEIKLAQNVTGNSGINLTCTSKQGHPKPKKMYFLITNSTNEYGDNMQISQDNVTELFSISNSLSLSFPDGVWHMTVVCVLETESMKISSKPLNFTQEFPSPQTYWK

B1: (IL10 I87A::FUN1-21)-75 xceptor (Fc fusion)
chain: SPGQGTQSENSCTHFPGNLPNMLRDLRDAFSRVKTFFQMKDQLDNLLLKESLLEDFKGYLGCQALSEMIQFYLEEVMPQAENQDPDAKAHVNSLGENLKTLRLRLRRCHRFLPCENKSKAVEQVKNAFNKLQEKGIYKAMSEFDIFINYIEAYITMKIRNLEPKSSDKTHTCPPCPAPEAAGAPSVFLFPPKPKDTLMISRTPEVTCVVVDVSHEDPEVKFNWYVDGVEVHNAKTKPREEQYNSTYRVVSVLTVLHQDWLNGKAYACAVSNKALPAPIEKTISKAKGQPREPQVYTLPPSRDELTKNQVSLTCLVKGFYPSDIAVEWESNGQPENNYKTTPPVLDSDGSFFLYSKLTVDKSRWQQGNVFSCSVMHEALHNHYTQKSLSLSPGQRHNNSSLNTGTQMAGHSPNSQVQLVQSGAEVKKPGASVKVSCKASGYTFTDYNMNWVRQAPGQGLEWMGNIDPYYGGTSYNQKFKGRVTMTRDTSISTAYMELSRLRSDDTAVYYCARWDYRYDDGRAYYVMDFWGQGTTVTVSSGGGGSGGGGSGGGGSGGGGSDIVMTQSPDSLAVSLGERATINCKSSQSVLYSSNQKNYLAWYQQKPGQPPKLLIYWASTRESGVPDRFSGSGSGTDFTLTISSLQAEDVAVYYCHQYLYSWTFGQGTKLEIKR
B2: IL10::FUN1-21 xceptor (Fc fusion)
chain: SPGQGTQSENSCTHFPGNLPNMLRDLRDAFSRVKTFFQMKDQLDNLLLKESLLEDFKGYLGCQALSEMIQFYLEEVMPQAENQDPDIKAHVNSLGENLKTLRLRLRRCHRFLPCENKSKAVEQVKNAFNKLQEKGIYKAMSEFDIFINYIEAYITMKIRNLEPKSSDKTHTCPPCPAPEAAGAPSVFLFPPKPKDTLMISRTPEVTCVVVDVSHEDPEVKFNWYVDGVEVHNAKTKPREEQYNSTYRVVSVLTVLHQDWLNGKAYACAVSNKALPAPIEKTISKAKGQPREPQVYTLPPSRDELTKNQVSLTCLVKGFYPSDIAVEWESNGQPENNYKTTPPVLDSDGSFFLYSKLTVDKSRWQQGNVFSCSVMHEALHNHYTQKSLSLSPGNSLFNQEVQIPLTESYSPNSQVQLVQSGAEVKKPGASVKVSCKASGYTFTDYNMNWVRQAPGQGLEWMGNIDPYYGGTSYNQKFKGRVTMTRDTSISTAYMELSRLRSDDTAVYYCARWDYRYDDGRAYYVMDFWGQGTTVTVSSGGGGSGGGGSGGGGSGGGGSDIVMTQSPDSLAVSLGERATINCKSSQSVLYSSNQKNYLAWYQQKPGQPPKLLIYWASTRESGVPDRFSGSGSGTDFTLTISSLQAEDVAVYYCHQYLYSWTFGQGTKLEIKR
B3: (monoIL10-A2 hinge::FUN1-21)-75 xceptor (Fc fusion)
chain: SPGQGTQSENSCTHFPGNLPNMLRDLRDAFSRVKTFFQMKDQLDNLLLKESLLEDFKGYLGCQALSEMIQFYLEEVMPQAENQDPDIKAHVNSLGENLKTLRLRLRRCHRFLPCENGGGSGGKSKAVEQVKNAFNKLQEKGIYKAMSEFDIFINYIEAYITMKIRNLEPPPPPCPPCPAPEAAGAPSVFLFPPKPKDTLMISRTPEVTCVVVDVSHEDPEVKFNWYVDGVEVHNAKTKPREEQYNSTYRVVSVLTVLHQDWLNGKAYACAVSNKALPAPIEKTISKAKGQPREPQVYTLPPSRDELTKNQVSLTCLVKGFYPSDIAVEWESNGQPENNYKTTPPVLDSDGSFFLYSKLTVDKSRWQQGNVFSCSVMHEALHNHYTQKSLSLSPGQRHNNSSLNTGTQMAGHSPNSQVQLVQSGAEVKKPGASVKVSCKASGYTFTDYNMNWVRQAPGQGLEWMGNIDPYYGGTSYNQKFKGRVTMTRDTSISTAYMELSRLRSDDTAVYYCARWDYRYDDGRAYYVMDFWGQGTTVTVSSGGGGSGGGGSGGGGSGGGGSDIVMTQSPDSLAVSLGERATINCKSSQSVLYSSNQKNYLAWYQQKPGQPPKLLIYWASTRESGVPDRFSGSGSGTDFTLTISSLQAEDVAVYYCHQYLYSWTFGQGTKLEIKR
notes: also called monoIL10::FUN1-21
B4: GL1 mAb (parent rat anti-murine CD86 monoclonal antibody) (antibody, V domains shown)
VH: EVQLVESAGGLVQPGRSLKLSCAASGFTFSDYYMAWVRQAPTKGLEWVATISHDGSSTYYRDSVKGRFTISRDNAKTILYLQMDSLRSEDTATYFCARQNIMDYWGQGVMVTVSS
VL: DIVMTQTPSSQAVSAGEKVTMSCKSSQSLLYSRDQSNYLAWYQQKPGQSPKLLIYLASTRESGVPDRFIGSGSGTDFTLTISSVQAEDLADYYCQQHYNYPLTFGSGTKLEIK
notes: also called GL1 antibody
B5: GL1 SMIP (Fc fusion)
chain: EVQLVESAGGLVQPGRSLKLSCAASGFTFSDYYMAWVRQAPTKGLEWVATISHDGSSTYYRDSVKGRFTISRDNAKTILYLQMDSLRSEDTATYFCARQNIMDYWGQGVMVTVSSGGGGSGGGGSGGGGSGGGGSDIVMTQTPSSQAVSAGEKVTMSCKSSQSLLYSRDQSNYLAWYQQKPGQSPKLLIYLASTRESGVPDRFIGSGSGTDFTLTISSVQAEDLADYYCQQHYNYPLTFGSGTKLEIKLEPKSSDKTHTCPPCPAPEAAGAPSVFLFPPKPKDTLMISRTPEVTCVVVDVSHEDPEVKFNWYVDGVEVHNAKTKPREEQYNSTYRVVSVLTVLHQDWLNGKAYACAVSNKALPAPIEKTISKAKGQPREPQVYTLPPSRDELTKNQVSLTCLVKGFYPSDIAVEWESNGQPENNYKTTPPVLDSDGSFFLYSKLTVDKSRWQQGNVFSCSVMHEALHNHYTQKSLSLSPG
notes: SMIP containing a single-chain GL1 antibody fragment
B6: GL1 PIMS (Fc fusion)
chain: EPKSSDKTHTCPPCPAPEAAGAPSVFLFPPKPKDTLMISRTPEVTCVVVDVSHEDPEVKFNWYVDGVEVHNAKTKPREEQYNSTYRVVSVLTVLHQDWLNGKAYACAVSNKALPAPIEKTISKAKGQPREPQVYTLPPSRDELTKNQVSLTCLVKGFYPSDIAVEWESNGQPENNYKTTPPVLDSDGSFFLYSKLTVDKSRWQQGNVFSCSVMHEALHNHYTQKSLSLSPGNSLFNQEVQIPLTESYSPNSEVQLVESAGGLVQPGRSLKLSCAASGFTFSDYYMAWVRQAPTKGLEWVATISHDGSSTYYRDSVKGRFTISRDNAKTILYLQMDSLRSEDTATYFCARQNIMDYWGQGVMVTVSSGGGGSGGGGSGGGGSGGGGSDIVMTQTPSSQAVSAGEKVTMSCKSSQSLLYSRDQSNYLAWYQQKPGQSPKLLIYLASTRESGVPDRFIGSGSGTDFTLTISSVQAEDLADYYCQQHYNYPLTFGSGTKLEIK

As usually defined, the koff is the rate constant with which the complex falls apart. The low end stands for a long-lived complex, the high end for a short-lived complex. The term kon denotes a measure of how fast the partners come together. A higher kon goes with fast association. The Kd is the free concentration of one partner at which half of the binding sites on the other are occupied at equilibrium, for simple one-to-one binding. Read a low Kd as a tighter complex.

The target in one assay is T1, CD86-mIgG (Ancell, Inc). The assay can be described thus: SPR (BIAcore T100), CD86-mIgG immobilized on CM5; second site. As for the experimental part:
(§1) SPR measurements were performed on a BIAcore™ T100 SPR (Pharmacia Biotech AB, Uppsala) using HBS-EP+ (GE Healthcare) as a running buffer. […] CTLA4-containing constructs were injected for 150 seconds, at a flow rate of 10 μl/min, in a series of concentrations from 4 nM to 10 μM. Dissociation was monitored for 600 seconds, and the surface was either regenerated by injecting 50 mM sodium citrate, 500 mM sodium chloride, pH 5.0, for 60 seconds (wild type CTLA4) or 10 mM glycine, pH 1.7 (L104E A29Y CTLA4). […] Data were analyzed using BiaEvaluation for the T100 software (version 2.0.1, GE Healthcare).
(§2) SPR measurements were performed as listed above, with the following exceptions: HBS-P+ (GE Healthcare) was used as a running buffer; dissociation was monitored for 1200 seconds; and the surface was regenerated by injecting 10 mM glycine, pH 1.7, for 60 seconds.
Background: In SPR one partner is held on a chip, and binding of the other changes the refractive index at the surface.
B1: the “Second Site ka” value is 0.0198 s⁻¹ and the “Second Site kd” value came to 0.0579 s⁻¹.

For B2, the “Second Site ka” value worked out at 0.0064 s⁻¹ and the “Second Site kd” value worked out at 0.0387 s⁻¹.

Regarding B3, the “Second Site ka” value is 0.011 s⁻¹ and the “Second Site kd” value is 0.0111 s⁻¹.

The next assay deals with T2, Murine CD86-mIgG (R&D Systems, Inc). In words: SPR (BIAcore T100), murine CD86-mIgG immobilized on CM5; bivalent analyte model, first site. The protocol: (§3) SPR measurements were performed on a BIAcore™ T100 SPR (Pharmacia Biotech AB, Uppsala) using HBS-EP+ (GE Healthcare) as a running buffer. Murine CD86-mIgG (25 μg/mL in 10 mM sodium acetate, pH 4.0, R&D Systems, Inc) was directly immobilized onto a CM5 chip using standard amine coupling chemistry (Biacore Amine Coupling Kit, GE Healthcare), with final immobilization levels of 150, 493, and 746 Ru. CTLA4-containing constructs were injected for 150 seconds, at a flow rate of 10 μl/min, in a series of concentrations from 4 nM to 8 μM. Dissociation was monitored for 600 seconds (CTLA4 constructs) or 1200 seconds (GL1 constructs), and the surface was regenerated by injecting 10 mM glycine, pH 1.7, for 60 seconds. […] Data were analyzed using BiaEvaluation for the T100 software (version 2.0.1, GE Healthcare).
In the case of B4, the koff stood at 0.000106 s⁻¹ and the kon came to 78900 M⁻¹ s⁻¹.

Molecule B5 registered a koff of 6.2e-05 s⁻¹ and a kon of 118000 M⁻¹ s⁻¹.

As for B6, the koff worked out at 0.000125 s⁻¹ and the association rate constant (kon) is 177000 M⁻¹ s⁻¹.

For the next assay, the target named is T1, CD86-mIgG (Ancell, Inc). In words: SPR (BIAcore T100), CD86-mIgG immobilized on CM5; first site. The protocol:
as §1, §2
In turn, B1 came in with a koff of 0.000433 s⁻¹ and a kon of 40700 M⁻¹ s⁻¹.

Molecule B2 came in with a dissociation rate constant (koff) of 0.000128 s⁻¹ and a kon of 158000 M⁻¹ s⁻¹.

Molecule B3 had a koff of 0.000344 s⁻¹ and a kon of 12600 M⁻¹ s⁻¹.

The next assay deals with T2, Murine CD86-mIgG (R&D Systems, Inc). In words: SPR (BIAcore T100), murine CD86-mIgG immobilized on CM5; steady-state equilibrium fit. As for the experimental part:
as §3
In turn, B4 registered a Kd of 37.7 nM.

As for B5, the affinity, expressed as Kd, was 26.2 nM.

In the case of B6, the Kd is 78.3 nM.

The next assay has the same target. In words: SPR (BIAcore T100), murine CD86-mIgG immobilized on CM5; bivalent analyte model, second site. As for the experimental part: as §3
Consider B4, for which the “Second Site ka” value was 0.00879 s⁻¹ and the “Second Site kd” value was determined as 0.00635 s⁻¹.

For B5, the “Second Site ka” value amounted to 0.00964 s⁻¹ and the “Second Site kd” value was 0.0185 s⁻¹.

As for B6, the “Second Site ka” value was 0.0431 s⁻¹ and the “Second Site kd” value amounted to 0.0977 s⁻¹.

The next assay deals with T1, CD86-mIgG (Ancell, Inc). In words: SPR (BIAcore T100), CD86-mIgG immobilized on CM5; steady-state equilibrium fit. The protocol:
as §1, §2
In the case of B1, binding was characterised by a dissociation constant (Kd) of 88.5 nM.

With B2, binding was put at a Kd of 98.6 nM.

For the molecule B3, the affinity, expressed as Kd, was 178 nM.

These data come from patent US20120100139A1 (APTEVO RESEARCH AND DEVELOPMENT, published 2012).
